Ends that are not written are not given here.
Experiments:
[1] = molecular target: T1, ErbB-1 expressed on transfected cells (32D derivative D1; CHO cells co-transfected with ErbB-4) (UniProt P00533 25-1210, limits assumed); experiment: in vitro studies with engineered cell lines expressing all four ErbB proteins (FIGS. 3 to 5)
T1 construct: whole, on cells; also called Epidermal Growth Factor Receptor
Description: (§1) The indicated derivative lines of 32D cells were tested for cell proliferation using the [3-(4,5-dimethylthiazol-2-yl)-2,5-diphenyl]tetrazolium bromide (MTT) assay. […] The MTT assay was performed 24 hours later.
(§2) The indicated derivatives of 32D cells were incubated for various time intervals in the absence of IL-3. […] For control, cells were incubated with medium conditioned by IL-3-producing cells (open triangles), or with no factor (open circles). The extent of cell proliferation was determined daily by using the colorimetric MTT assay. The data presented are the mean±S.D. of 4 determinations.

[2] = molecular target: T2, ErbB-3 expressed on transfected cells (32D derivative D3; CHO cells co-transfected with ErbB-4) (UniProt P21860 20-1342, limits assumed); experiment: as above
T2 construct: whole, on cells
T2 sequence (P21860 20-1342 limits assumed): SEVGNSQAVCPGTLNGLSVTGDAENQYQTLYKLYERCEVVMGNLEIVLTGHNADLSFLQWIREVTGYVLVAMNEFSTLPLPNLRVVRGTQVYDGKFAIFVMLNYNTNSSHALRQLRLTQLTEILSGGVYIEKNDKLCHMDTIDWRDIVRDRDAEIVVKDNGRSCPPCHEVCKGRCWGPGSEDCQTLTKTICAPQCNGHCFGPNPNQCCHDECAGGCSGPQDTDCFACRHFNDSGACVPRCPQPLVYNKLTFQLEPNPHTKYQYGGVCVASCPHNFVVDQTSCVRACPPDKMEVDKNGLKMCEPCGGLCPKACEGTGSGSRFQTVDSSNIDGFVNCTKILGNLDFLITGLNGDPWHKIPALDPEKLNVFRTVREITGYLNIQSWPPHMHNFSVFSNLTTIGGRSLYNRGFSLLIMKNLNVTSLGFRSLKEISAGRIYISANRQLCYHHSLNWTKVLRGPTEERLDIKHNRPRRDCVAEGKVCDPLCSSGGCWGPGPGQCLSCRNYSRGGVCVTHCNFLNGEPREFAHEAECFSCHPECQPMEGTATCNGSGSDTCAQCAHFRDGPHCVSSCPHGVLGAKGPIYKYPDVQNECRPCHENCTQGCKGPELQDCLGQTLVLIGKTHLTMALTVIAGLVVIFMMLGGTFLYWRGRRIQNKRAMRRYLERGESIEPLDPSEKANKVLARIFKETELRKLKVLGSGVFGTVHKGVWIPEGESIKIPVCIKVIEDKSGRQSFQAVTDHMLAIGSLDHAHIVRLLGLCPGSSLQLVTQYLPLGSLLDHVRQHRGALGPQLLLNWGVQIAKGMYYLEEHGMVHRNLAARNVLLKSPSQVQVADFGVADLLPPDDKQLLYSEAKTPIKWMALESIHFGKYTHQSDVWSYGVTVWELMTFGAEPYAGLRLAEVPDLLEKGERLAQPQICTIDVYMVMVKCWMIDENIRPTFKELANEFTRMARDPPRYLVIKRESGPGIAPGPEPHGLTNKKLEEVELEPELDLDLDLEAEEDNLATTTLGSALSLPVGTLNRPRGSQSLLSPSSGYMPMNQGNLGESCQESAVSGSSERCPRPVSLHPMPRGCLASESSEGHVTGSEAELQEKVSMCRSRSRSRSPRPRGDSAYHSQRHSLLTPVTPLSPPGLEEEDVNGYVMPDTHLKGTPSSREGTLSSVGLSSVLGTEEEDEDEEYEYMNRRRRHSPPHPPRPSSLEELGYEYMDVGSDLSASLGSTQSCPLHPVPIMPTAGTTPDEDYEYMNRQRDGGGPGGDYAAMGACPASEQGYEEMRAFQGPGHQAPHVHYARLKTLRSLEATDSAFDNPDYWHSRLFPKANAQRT
Description: as §1, §2

[3] = molecular target: T3, ErbB-2 expressed on transfected cells (32D derivative D2; CHO cells co-transfected with ErbB-4) (UniProt P04626 23-1255, limits assumed); experiment: as above
T3 construct: whole, on cells
Description: as §1, §2

[4] = molecular target: T4, ErbB-4 expressed on transfected cells (CHO cells; 32D derivatives D4 and D24) (UniProt Q15303 26-1308, limits assumed); experiment: displacement of radiolabeled NRG-1β (5 ng/ml) from CHO cells expressing ErbB-4 by unlabeled ligand; reference unlabeled NRG-1
T4 construct: whole, on cells; also called surface-expressed ErbB-4
T4 sequence (Q15303 26-1308 limits assumed): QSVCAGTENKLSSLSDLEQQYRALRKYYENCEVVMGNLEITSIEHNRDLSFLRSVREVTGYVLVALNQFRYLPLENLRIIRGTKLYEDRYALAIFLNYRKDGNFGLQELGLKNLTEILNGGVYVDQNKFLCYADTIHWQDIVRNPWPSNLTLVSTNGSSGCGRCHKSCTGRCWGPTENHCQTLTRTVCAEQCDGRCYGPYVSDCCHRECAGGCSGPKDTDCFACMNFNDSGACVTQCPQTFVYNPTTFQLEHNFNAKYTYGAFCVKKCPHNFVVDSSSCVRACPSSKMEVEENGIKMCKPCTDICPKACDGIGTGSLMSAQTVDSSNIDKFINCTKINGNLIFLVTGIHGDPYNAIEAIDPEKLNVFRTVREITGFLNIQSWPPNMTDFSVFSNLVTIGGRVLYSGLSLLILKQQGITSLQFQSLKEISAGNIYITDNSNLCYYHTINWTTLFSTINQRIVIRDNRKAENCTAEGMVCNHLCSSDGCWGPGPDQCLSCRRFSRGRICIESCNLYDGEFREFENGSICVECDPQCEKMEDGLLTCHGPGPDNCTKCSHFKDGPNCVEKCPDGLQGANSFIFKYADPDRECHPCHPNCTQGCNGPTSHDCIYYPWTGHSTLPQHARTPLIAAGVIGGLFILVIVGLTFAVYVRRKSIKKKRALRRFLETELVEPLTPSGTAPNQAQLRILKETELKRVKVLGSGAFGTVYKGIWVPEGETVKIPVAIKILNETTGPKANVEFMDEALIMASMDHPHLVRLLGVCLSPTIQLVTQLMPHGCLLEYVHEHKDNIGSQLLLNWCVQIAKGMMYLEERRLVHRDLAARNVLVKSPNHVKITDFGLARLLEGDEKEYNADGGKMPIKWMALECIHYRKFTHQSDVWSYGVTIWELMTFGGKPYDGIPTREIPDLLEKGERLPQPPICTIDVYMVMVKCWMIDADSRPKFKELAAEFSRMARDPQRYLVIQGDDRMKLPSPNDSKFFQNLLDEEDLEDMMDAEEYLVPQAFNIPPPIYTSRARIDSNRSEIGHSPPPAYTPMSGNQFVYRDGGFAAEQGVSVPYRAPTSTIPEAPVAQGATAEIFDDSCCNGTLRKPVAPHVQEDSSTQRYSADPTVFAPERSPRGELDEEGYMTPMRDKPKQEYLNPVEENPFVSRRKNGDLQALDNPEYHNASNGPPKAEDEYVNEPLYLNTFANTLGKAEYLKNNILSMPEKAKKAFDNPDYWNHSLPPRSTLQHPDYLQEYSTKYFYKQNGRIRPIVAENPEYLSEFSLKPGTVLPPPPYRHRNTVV
Description: (§3) Each data point represents the mean and range (bars) of two determinations.
(§4) To quantify the interaction, a ligand displacement analysis on ErbB-4-expressing CHO cells was undertaken.

[5] = molecular target: T4, ErbB-4 expressed on transfected cells …; experiment: displacement of radiolabeled NRG-1β (5 ng/ml) from CHO cells expressing ErbB-4 by unlabeled ligand, 2 hours at 4 C
Description: as §3, §4

binding result [1]: no binding | binding result [2]: no binding | binding result [3]: no binding | fold lower binding affinity than NRG-1 [4]: ~8 fold | Kd [5]: ~20 nM
B1: synthetic refolded mouse EGF-like domain of NRG-4 (residues 4 to 50, SEQ ID NO:2) (ligand)
peptide: DHEQPCGPRHRSFCLNGGICYVIPTIPSPFCRCIENYTGARCEEVFL
modifications: disulfide (positions not given here); also: three disulfide bonds, pairing not given here
notes: Chemically synthesised, folded and fully oxidized (three predicted disulfide bonds); also called Neuregulin-4; the novel synthetic peptide

Source: patent US20040121326A1 (YEDA RESEARCH AND DEVELOPMENT, published 2004)
